Consider 1 molecule from paper PMC5425128, “Functional human GRIN2B promoter polymorphism and variation of mental processing speed in older adults”.

The target of the data set is T1, Elk-1 (human, UniProt P19419 1-428).
T1 sequence: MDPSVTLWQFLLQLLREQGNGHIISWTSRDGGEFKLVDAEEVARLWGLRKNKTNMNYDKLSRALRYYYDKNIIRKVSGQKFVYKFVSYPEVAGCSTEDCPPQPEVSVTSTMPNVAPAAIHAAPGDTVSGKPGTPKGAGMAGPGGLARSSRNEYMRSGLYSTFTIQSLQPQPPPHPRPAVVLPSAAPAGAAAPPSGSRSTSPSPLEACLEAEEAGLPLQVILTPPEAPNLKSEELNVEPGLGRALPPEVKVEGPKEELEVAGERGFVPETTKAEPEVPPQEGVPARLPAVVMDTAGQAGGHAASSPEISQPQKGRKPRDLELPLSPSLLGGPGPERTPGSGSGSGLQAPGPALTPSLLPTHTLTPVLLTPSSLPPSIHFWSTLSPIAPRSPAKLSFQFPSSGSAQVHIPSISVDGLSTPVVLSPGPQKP
Put plainly: EMSA; 1 ug Elk-1, 10 mM MgCl2, no poly(dI-dC); 50 mM HEPES pH 7.5, 10 mM MgCl2, 5% glycerol, 1 mM DTT, 0.3% BSA, 1 mM EDTA; 1 h on ice; 6% gel (HEPES buffer pH 6.3), no poly(dI-dC). The note with it: protein: commercial; blunt.

B1: GRIN2B A allele (rs3764030 A) (dsDNA)
DNA 1: CATCTCCGGGGAACACGCGAA
DNA 2: TTCGCGTGTTCCCCGGAGATG
B1: the binding result is given as “binds”.
